The target in this experiment is Recombinant human Fc-tagged MCAM IgG1-2A (human) (UniProt P43121). Put plainly: SPR (Biacore T200), steady state, MCAM IgG1-2A captured by anti-Fc IgG, laminin in solution.

Results on one substance are retold here after US20140314744A1.

Chain of Recombinant human Fc-tagged MCAM IgG1-2A (human) (P43121 19-242): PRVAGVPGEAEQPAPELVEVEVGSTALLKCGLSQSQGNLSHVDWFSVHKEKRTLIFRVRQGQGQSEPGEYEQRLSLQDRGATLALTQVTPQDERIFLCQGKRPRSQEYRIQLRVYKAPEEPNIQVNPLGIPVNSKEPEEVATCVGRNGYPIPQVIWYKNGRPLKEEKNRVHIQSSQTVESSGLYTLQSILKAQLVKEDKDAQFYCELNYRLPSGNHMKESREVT

For “Recombinant human laminin 411 (Biolamina) (from UniProt Q16363 25-1823; P07942 22-1786; P11047 34-1609) (ligand)”, the Kd came out at 0.066 µM.
